Measured values reported in patent publication US20230190951A1, “CONJUGATES OF ANTIBODIES AN IMMUNE CELL ENGAGERS” (SYNAFFIX B.V., priority 2020, published 2023).

How the values were obtained:
FcRn receptor = test: SPR (Biacore T200), FcRn on CM5 chip, steady state analysis, pH 6.0; pH 6.0
[1] = biological target: CD3 on the cell surface of Jurkat E6.1 cells (UniProt P07766); test: flow cytometry on Jurkat E6.1 cells, 3.16 nM antibody, anti-IgG1-PE; negative control
[2] = biological target: CD3 on the cell surface of Jurkat E6.1 cells (UniProt P07766); test: flow cytometry on Jurkat E6.1 cells, 100 nM antibody, anti-IgG1-PE; negative control
[3] = biological target: CD3 on the cell surface of Jurkat E6.1 cells (UniProt P07766); test: flow cytometry on Jurkat E6.1 cells, 10 nM antibody, anti-IgG1-PE; negative control
[4] = biological target: CD3 on the cell surface of Jurkat E6.1 cells (UniProt P07766); test: flow cytometry on Jurkat E6.1 cells, 1 nM antibody, anti-IgG1-PE; negative control
[5] = biological target: CD3 on the cell surface of Jurkat E6.1 cells (UniProt P07766); test: flow cytometry on Jurkat E6.1 cells, 1000 nM antibody, anti-IgG1-PE; negative control
[6] = biological target: CD3 on the cell surface of Jurkat E6.1 cells (UniProt P07766); test: flow cytometry on Jurkat E6.1 cells, 31.6 nM antibody, anti-IgG1-PE; negative control
[7] = biological target: CD3 on the cell surface of Jurkat E6.1 cells (UniProt P07766); test: flow cytometry on Jurkat E6.1 cells, 316 nM antibody, anti-IgG1-PE; negative control
[8] = biological target: CD3 on the cell surface of Jurkat E6.1 cells (UniProt P07766); test: flow cytometry on Jurkat E6.1 cells, 0.32 nM antibody, anti-IgG1-PE; negative control

Sequence of CD3 on the cell surface of Jurkat E6.1 cells (P07766 23-207): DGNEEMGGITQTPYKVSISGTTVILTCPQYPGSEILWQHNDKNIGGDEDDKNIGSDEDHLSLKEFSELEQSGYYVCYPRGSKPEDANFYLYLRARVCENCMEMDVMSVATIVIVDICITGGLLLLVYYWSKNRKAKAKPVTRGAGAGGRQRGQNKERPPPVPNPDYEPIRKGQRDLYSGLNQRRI
Sequence of FcRn receptor (P55899 24-297, chain 1 of 2): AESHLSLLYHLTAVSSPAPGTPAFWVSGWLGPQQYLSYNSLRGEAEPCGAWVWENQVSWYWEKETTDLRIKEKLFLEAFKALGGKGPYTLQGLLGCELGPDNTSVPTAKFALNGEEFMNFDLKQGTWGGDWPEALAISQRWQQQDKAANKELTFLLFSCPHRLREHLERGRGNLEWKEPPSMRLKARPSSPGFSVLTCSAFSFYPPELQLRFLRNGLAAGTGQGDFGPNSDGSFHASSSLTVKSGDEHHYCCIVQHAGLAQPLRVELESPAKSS
Sequence of FcRn receptor (P61769 21-119, chain 2 of 2, further chain): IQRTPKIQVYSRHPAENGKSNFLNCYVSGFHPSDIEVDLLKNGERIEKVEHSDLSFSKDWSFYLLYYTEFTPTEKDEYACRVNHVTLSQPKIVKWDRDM

Substance: Irrelevant IgG1 WT (antibody)
- Kd (FcRn receptor): 1.74 µM

Substance: Rituximab (antibody)
- median fluorescence intensity [1]: 55.4
- median fluorescence intensity [2]: 55.5
- median fluorescence intensity [3]: 60.8
- median fluorescence intensity [4]: 56.5
- median fluorescence intensity [5]: 66.4
- median fluorescence intensity [6]: 58.7
- median fluorescence intensity [7]: 55
- median fluorescence intensity [8]: 58.3
